Among the data in the Immune Epitope Database (IEDB) are Kd values, retold here.

The Kd is the constant that tells how readily two partners part at equilibrium.

One test deals with HLA-A*23:01. As to the kind of experiment: IEDB peptide-MHC binding, purified MHC/competitive/fluorescence; filed as Kd, often an IC50 or EC50 that approximates it; ≥ and ≤ were set here for values at or beyond the usual limits of such assays.
The next test addresses HLA-B*27:05. Nature of the test: IEDB peptide-MHC binding, purified MHC/direct/fluorescence; filed as Kd, often an IC50 or EC50 that approximates it; ≥ and ≤ were set here for values at or beyond the usual limits of such assays.
Test [1] concerns the target HLA-B*57:01. The description is as above.
The target of test [2] is HLA-B*07:02. Described as above.
In the next test the target is HLA-B*08:01. The description is as above.
The target of another test is HLA-B*44:02. The description is as above.
Test [3] deals with HLA-A*26:01. The description is as above.
The next test deals with HLA-B*40:01. The description is as above.
Another test has as its target HLA-B*35:01. Described as above. The following applies: source organism: Cryptosporidium parvum.
Test [4] concerns the target HLA-B*15:17. The description is as above.
For the next test, the target named is HLA-A*01:01. Described as above.
Test [5] concerns the target HLA-A*69:01. Described as above.
For a further test, the target named is HLA-A*31:01. The description is as above.
Test [6] addresses HLA-B*15:01. The test is described as above.
Test [7] has as its target HLA-A*03:01. The description is as above.
Test [8] deals with HLA-A*02:01. Described as above.
The target in a further test is HLA-A*11:01. Described as above.
The target of another test is HLA-C*15:02. The description is as above. The following applies: source organism: Cryptosporidium parvum.
The target of test [9] is HLA-A*24:03. Described as above.
A further test deals with HLA-B*58:01. The description is as above.
Test [10] concerns the target HLA-A*30:01. The test is described as above.
The target in test [11] is HLA-B*57:01. As to the kind of experiment: IEDB peptide-MHC binding, purified MHC/competitive/fluorescence; filed as Kd, often an IC50 or EC50 that approximates it; ≥ and ≤ were set here for values at or beyond the usual limits of such assays. To be noted: source organism: Streptococcus pneumoniae TIGR4.
A further test concerns the target HLA-B*46:01. The test is described as above. To be noted: source organism: Streptococcus pneumoniae TIGR4.
A further test has as its target HLA-B*27:03. Described as above. The following applies: source organism: Streptococcus pneumoniae TIGR4.
The target of another test is HLA-A*68:02. The test is described as above. To be noted: source organism: Streptococcus pneumoniae TIGR4.
In test [12] the target is HLA-A*26:01. The test is described as above. To be noted: source organism: Streptococcus pneumoniae TIGR4.
A further test deals with HLA-B*51:01. The test is described as above. The following applies: source organism: Streptococcus pneumoniae TIGR4.
Test [13] deals with HLA-B*15:17. Described as above. The following applies: source organism: Streptococcus pneumoniae TIGR4.
Test [14] addresses HLA-A*69:01. The description is as above. To be noted: source organism: Streptococcus pneumoniae TIGR4.
Test [15] deals with HLA-A*24:03. The description is as above. The following applies: source organism: Streptococcus pneumoniae TIGR4.
For the next test, the target named is HLA-A*29:02. Described as above. To be noted: source organism: Streptococcus pneumoniae TIGR4.
Test [16] concerns the target HLA-A*03:01. The test is described as above. To be noted: source organism: Streptococcus pneumoniae TIGR4.
The target in test [17] is HLA-A*02:01. The test is described as above. The following applies: source organism: Streptococcus pneumoniae TIGR4.
The target of test [18] is HLA-B*18:01. The test is described as above. The following applies: source organism: Streptococcus pneumoniae TIGR4.
For test [19], the target named is HLA-B*18:01. As to the kind of experiment: IEDB peptide-MHC binding, purified MHC/direct/fluorescence; filed as Kd, often an IC50 or EC50 that approximates it; ≥ and ≤ were set here for values at or beyond the usual limits of such assays. The following applies: source organism: Marburg virus - Musoke, Kenya, 1980.
Another test concerns the target HLA-A*26:02. Nature of the test: IEDB peptide-MHC binding, purified MHC/competitive/fluorescence; filed as Kd, often an IC50 or EC50 that approximates it; ≥ and ≤ were set here for values at or beyond the usual limits of such assays. The following applies: source organism: Orthomarburgvirus marburgense.
Test [20] addresses HLA-B*07:02. The description is as above. The following applies: source organism: Orthomarburgvirus marburgense.
Test [21] addresses HLA-B*15:01. The test is described as above. To be noted: source organism: Orthomarburgvirus marburgense.
The target of test [22] is HLA-A*30:01. The description is as above. The following applies: source organism: Orthomarburgvirus marburgense.
[23] abbreviates: source organism: Cryptosporidium parvum.
The mark [24] stands for this setting: source organism: Collimonas fungivorans.
[25] abbreviates: source organism: Marburg virus - Musoke, Kenya, 1980.
Setting [26] is: source organism: Vibrio vulnificus.

Turning to IWQWIHHEK, the Kd with HLA-A*23:01 (source organism: Salmonella enterica subsp. enterica serovar Typhi) came to 0.178 µM.

As for ISCQIYNAL, the Kd with HLA-B*27:05 (setting [23]), in the test with HLA-B*57:01 [1] (setting [23]), with HLA-B*07:02 [2] (setting [23]), with HLA-B*08:01 (setting [23]), with HLA-B*44:02 (setting [23]) and with HLA-A*26:01 [3] (setting [23]) was not below 20 µM each time. The Kd in the test with HLA-B*40:01 (setting [23]) is 0.192 µM; with HLA-B*35:01, 0.169 µM; in the test with HLA-B*15:17 [4] (setting [23]), 0.0826 µM; in the test with HLA-A*01:01 (setting [23]), not below 20 µM; in the test with HLA-A*69:01 [5] (setting [23]), not below 20 µM; in the test with HLA-A*31:01 (setting [23]), not below 20 µM. The Kd with HLA-B*15:01 [6] (setting [23]) is 0.27 µM; in the test with HLA-A*03:01 [7] (setting [23]), not below 20 µM; with HLA-A*02:01 [8] (setting [23]) it was not below 20 µM; with HLA-A*11:01 (setting [23]), not below 20 µM; with HLA-C*15:02 it was 0.385 µM.

Take AYSPFAFKK: the Kd with HLA-B*27:05 (setting [24]), with HLA-B*07:02 [2] (setting [24]), with HLA-B*08:01 (setting [24]), with HLA-A*26:01 [3] (setting [24]), with HLA-B*40:01 (setting [24]) and with HLA-A*01:01 (setting [24]) was not below 20 µM in each case. The Kd is not below 20 µM with HLA-A*69:01 [5] (setting [24]); 2.4 µM with HLA-A*24:03 [9] (setting [24]); not below 20 µM with HLA-B*58:01 (setting [24]); not below 20 µM in the test with HLA-B*15:01 [6] (setting [24]); 2.28 µM with HLA-A*03:01 [7] (setting [24]); 0.00979 µM with HLA-A*30:01 [10] (setting [24]). For the same sequence, the Kd with HLA-A*02:01 [8] (setting [24]) is not below 20 µM; in the test with HLA-A*11:01 (setting [24]) it was 0.168 µM.

Regarding VPPTNSINK, the Kd in the test with HLA-B*27:05 (setting [23]) was not below 20 µM; in the test with HLA-B*08:01 (setting [23]), not below 20 µM; with HLA-B*44:02 (setting [23]) it was not below 20 µM; in the test with HLA-A*26:01 [3] (setting [23]), not below 20 µM; in the test with HLA-B*40:01 (setting [23]), not below 20 µM; with HLA-B*35:01 it was 15 µM. The Kd with HLA-A*01:01 (setting [23]) is not below 20 µM; with HLA-A*69:01 [5] (setting [23]), not below 20 µM; in the test with HLA-A*24:03 [9] (setting [23]), not below 20 µM; in the test with HLA-A*31:01 (setting [23]), not below 20 µM; with HLA-B*58:01 (setting [23]), not below 20 µM; with HLA-B*15:01 [6] (setting [23]) it was not below 10 µM. Besides, the Kd with HLA-A*03:01 [7] (setting [23]), with HLA-A*02:01 [8] (setting [23]) and with HLA-A*11:01 (setting [23]) was not below 20 µM in each case.

As to YQVEGATRV, the dissociation constant (Kd) with HLA-B*57:01 [11], in the test with HLA-B*46:01, in the test with HLA-B*27:03, with HLA-A*68:02, with HLA-A*26:01 [12] and in the test with HLA-B*51:01 was not below 20 µM each time. In addition, the Kd in the test with HLA-B*15:17 [13], with HLA-A*69:01 [14], with HLA-A*24:03 [15], with HLA-A*29:02, with HLA-A*23:01 (source organism: Streptococcus pneumoniae TIGR4) and with HLA-A*03:01 [16] was not below 20 µM throughout. For the same sequence, the Kd with HLA-A*02:01 [17] is 0.0017 µM; with HLA-B*18:01 [18] it was not below 20 µM.

Consider QGKQHLHSL, for which the Kd is not below 20 µM in the test with HLA-B*57:01 [1] (setting [25]); 0.212 µM with HLA-B*08:01 (setting [25]); not below 20 µM with HLA-B*15:17 [4] (setting [25]); not below 20 µM in the test with HLA-A*01:01 (setting [25]); not below 20 µM with HLA-A*69:01 [5] (setting [25]); not below 20 µM with HLA-A*31:01 (setting [25]). The Kd is not below 20 µM with HLA-B*58:01 (setting [25]); not below 20 µM with HLA-A*11:01 (setting [25]); not below 20 µM with HLA-B*18:01 [19]; not below 20 µM with HLA-A*26:02; not below 20 µM in the test with HLA-B*07:02 [20]; 4 µM in the test with HLA-B*15:01 [21]. In addition, the Kd with HLA-A*30:01 [22] is not below 20 µM.

As to QKDINTPGY, the Kd with HLA-B*27:05 (setting [26]), with HLA-B*07:02 [2] (setting [26]), with HLA-B*08:01 (setting [26]), with HLA-B*44:02 (setting [26]), with HLA-A*26:01 [3] (setting [26]) and with HLA-B*40:01 (setting [26]) was not below 20 µM throughout. The Kd with HLA-A*01:01 (setting [26]) was not below 20 µM; in the test with HLA-A*69:01 [5] (setting [26]) it was not below 20 µM; in the test with HLA-A*31:01 (setting [26]), not below 20 µM; with HLA-B*58:01 (setting [26]), not below 20 µM; in the test with HLA-A*03:01 [7] (setting [26]), not below 20 µM; with HLA-A*30:01 [10] (setting [26]) it was 9.37 µM. Moreover, the Kd with HLA-A*02:01 [8] (setting [26]) was 15.5 µM; with HLA-A*11:01 (setting [26]), not below 20 µM.
